The data set is described as follows: soluble on expression in E. coli; label from the status in PepcDB or PDB records.
Take “MSLKKLIVLTCTLSLLTACGDSIEKKAGEKLAAARAAFEHNDYNEAKLQIDSIKILYPKAFDTRKEGIKLMQQVELKEQQESLVYLDSMLQVKQEEFEAIKNKYTFEKNEEYQKIGNYFWPTQTVEKNLHRSFLRFQVNEQGVMTLTSIYCGPSNIHHVAVKVIAPDGSFAETPASNDSYETTDLGEKIEKADYKMGEDGNVLSFLYMNRDKKNIRVEYLGERKFSTTMTPSDREALVGTYELAKLLSSIRQIQQEKEEANLKIEFVKRKMEQKAQEEAAEKEGHHHHHH”: the “soluble on expression in E. coli” value was “soluble”.
With “APVGPLGQVKLTVWYHSDEQKLISIIHSCRALRQNGRDLPDPYVSVLLLPDKNRSTKRKTPQKKRTLNPEFNERFEWDLPLDGTLRRKLDVSVKSNSSFMSRERELLGKVQLDLAEIDLSQGAAQWYDLMDDRDKGGS” the entry was “soluble”.
Regarding “MKNWLAYINSLHSREIDLGLSRITSLAEKLSLNNFACPVVTVAGTNGKGSVVKSLESIYLAAGYKVAAYTSPHLLQFNERLRLNGEPATDELFIEAFKFIEDNRNHQPLSFFEFTTLAIFYICKKQNLDILLLEVGLGGRLDAVNIVEPDVAVITTIDIDHTDWLGEDRESIGREKAGIIRRHKPVIGGDPNLPNSVYEQVHLLEAPFYQLEKDFFAVSTKENWQWQGPTQDYQGLPLPSLKIENIATSLMVIHCLQSQLPVSQHSLIAGIKNAVLPGRFEWIQTPAPIVFDVAHNPQATAYLSEQLRKTDHAGRTLGVVGMLRDKDIPGALKPMLPCIDQWYAGTLSESRGATSANLQNVLSELQVENCYNFDSVADAFKKAVEDCRPQDRIVVFGSFYTVAMAKEVLLGGENGN”, the “soluble on expression in E. coli” value is given as “soluble”.
With “MGSDKIHHHHHHMKIPKRLQPLVDDGLIDDVLQRLKSGKEADVYTVLCGDKIQCAKVYKEAMQRSFKQAVQYQEGRKVRNTRNARAMQKSSKFGRKQQEESWQTAEVEALFRLANAGVRVPQPYICIDGVLLMELVTDVDGAVAPRLSDVILTEESAIADFDTMIRNIVRMLCVGIVHGDLSEFNVLIDAQGPVIIDLPQAVDAAANNHAESMFARDVNNITAYYGQFAPQLLQTRYAQEIWMLYEDGKLTPETALTGLFVEAVHEVDMGSLIDEIIAAEDEFYERQRAKKERDDE” the entry was “not soluble”; with “MGSDKIHHHHHHMRVELNGILPVCPCSGRGYLDNARLFRQIEPIVRKQSPFMNSRSLLCLLAVSLCASPVWADTVWMKNGDRLSGKIKVFDGGKLLLETPYGGSIALDWKQVQTLESDQEMLVKQDAYSGEKAKSLKAAEAGKVTLANGDSPKTVALASIEQIMKPKPLVEDFVWKGNVDVALDYKRAENDTDDYDVGFKTTARHGRWRHNAEGEYNRETKDDVTTTNNWSAEYALDRFITDKWFWQGRAEYKRDHIEDLARQRTVGTGPGYQFWDDELGAFSLGSLINRTDFEYRDGGKDNFYSAAVKWDYTRYLIGKNVQLFTNGEFAKPLGGVADYSLDAEVGLRYKVTEWASLNLKAEKDIITGTRESDLDKTRYTAGFGVTW”, “not soluble”.
On to “HHHHHHQVQLVQSGAEVKKPGASVKVSCQASGYRFSHFTVHWVRQAPGQRFEWMGWINPYNGNKEFSAKFQDRVTFTADTSANTAYMELRSLRSADTAVYYCARVGEWGWDDSPYDNYYMDVWGKGTTVIVSSGGGGSGGGGSGGGGSEIVLTQAPGTLSLSPGERATFSCRSSHSIRSRRVAWYQHKPGQAPRLVIHGVSNRASGISDRFSGSGSGTDFTLTITRVEPEDFALYYCQVYGASSYTFGQGTKLERK”, for which the “soluble on expression in E. coli” value is on record as “soluble”.
Regarding “MLNTSDIGKVFPSVTAVVEKGRLRFFAKAIGENNPIYTDEAAAKDAGYESLPMPPTFFFSLKMDVPNPFENYEKVGASLAKILHANQAFVYHQSVVAGDSLTFESHIADIYDKKAGALEFLVEKTKVSNQRGQHVADMTTTLVVRNLEHHHHHH”, the “soluble on expression in E. coli” value is recorded as “not soluble”.
With “MTARAVRGTKDLFGKELRMHQRIVATARKVLEAAGALELVTPIFEETQVFEKGVGAATDIVRKEMFTFQDRGGRSLTLRPEGTAAMVRAYLEHGMKVWPQPVRLWMAGPMFRAERPQKGRYRQFHQVNYEALGSENPILDAEAVVLLYECLKELGLRRLKVKLSSVGDPEDRARYNAYLREVLSPHREALSEDSKERLELNPMRILDSKSERDQALLKELGVRPMLDFLGEEARAHLKEVERHLERLSVPYELEPALVRGLDYYVRTAFEVHHEEIGAQSALGGGGRYDGLSELLGGPRVPGVGFAFGVERVALALEAEGFGLPEEKGPDLYLIPLTEEAVAEAFYLAEALRPRLRAEYALAPRKPAKGLEEALKRGAAFAGFLGEDELRAGEVTLKRLATGEQVRLSREEVPGYLLQALG” the entry was “soluble”.
As to “MFNKILVVCVGNVCRSPTAERLLKRFHPSLTVASAGLGALVGKGADPAAASVASAHDLSLENHCARQISARLCREYDLILTMEKRHIAALCDIAPEMRGKVMLFGHWDSEREIPDPYRKSRDAFEAVYTLLERSARQWAQALNAEQGKP”, the “soluble on expression in E. coli” value is “not soluble”.
With “MDKKANSNQNQEQKRETSDAVDRAAKAGLFNRIYVTVGQKVGIVELTKLEPRFERNIEKLTTYHNIIYNMVNAIELQVQVDPKAIVKNQVLCDPDESPWELLGGWINYMGTYHFNGPQSKILDAYSIACGKIGQKERQLQKRTRSHCIKKMRMYTADESVELNNHVAHLKDLLIAIDDSRHQLKSSRTTKEVKAKGEIYRKNIQAFNCTANEVQARLDEVPMIVPHHENELLKFSREVSIFNNSVENLLKEVVFRLGYGKRNDKPSTRAVLK” the entry was “not soluble”.
Take “MPTAIDLFAGLGGWSNGARRAGVKVLWAANHWPVAVGWHSANHPDAIHVCQDLHQADWSKVPAHGIMLASPCCQGHSKARGKKSGNAQHDSSRSTAWAVVSAAEYHSPEVVLVENVEEFTDWALYPAWSQAMAALGYMIAPHVVDCADLGVPQHRVRLFLVCTRSKAPLNLQLHQRQHVPASSFIDFDSGKWSPIVKPSRAESTLTRVKNGRQRFGERFIMPYYRSGSGLTGSCIERPIGTITKLDRWALVRGNEMRMLSADEGLAGMSFDADTKRPASHRLTMHMAGTSTNPVG”: the “soluble on expression in E. coli” value was “not soluble”.
With “MRNKILSDGAKELSYEIREIVKKADLINKNGQSIVFENIGDPIQKNNVVPQWIRETISNLTLDNKSYSYSPSKGILKTRQFLAELNNKKAGAQITADDILFFNGLGDAIAKVYQFISRSSRVIGPSPAYSTHSSAEAAHASQDPITYKLDPNNHWYPDLDDLYNKVKYNPNIIGILIINPDNPTGMVYPLETLKRIVEIAREFNLFLLSDEIYLNITYNGARAYSLAEVIEDVPGIAMKGISKEFPWPGSRCGWMEYYNRGKDQDFDKFCSALDNAKMIEVCSTTLPQLAIPVIMSDPRYLPYREELNSKIGKRSKIIAGILGQIPELMFNETYGAFYNTIVFKDGVLNDKQTLPIENAANKALVEKWISEPNVDLDKRFVYYLLAAKGICVVPISSFCSDLKGFRVTLLEENEELLEQTFTSIRDAIRLYLKS” the entry was “not soluble”; with “MTSASAPSFNPGKGPGSAVGIALLGFGTVGTEVMRLMTEYGDELAHRIGGPLEVRGIAVSDISKPREGVAPELLTEDAFALIEREDVDIVVEVIGGIEYPREVVLAALKAGKSVVTANKALVAAHSAELADAAEAANVDLYFEAAVAGAIPVVGPLRRSLAGDQIQSVMGIVNGTTNFILDAMDSTGADYADSLAEATRLGYAEADPTADVEGHDAASKAAILASIAFHTRVTADDVYCEGISNISAADIEAAQQAGHTIKLLAICEKFTNKEGKSAISARVHPTLLPVSHPLASVNKSFNAIFVEAEAAGRLMFYGNGAGGAPTASAVLGDVVGAARNKVHGGRAPGESTYANLPIADFGETTTRYHLDMDVEDRVGVLAELASLFSEQGISLRTIRQEERDDDARLIVVTHSALESDLSRTVELLKAKPVVKAINSVIRLERD”, “not soluble”.
In the case of “MGSDKIHHHHHHMRAIFFNGDLQYTTDYPDPVRQPGEALIRPHLVGICNTDLEITRGYMNFRGVLGHEFVGTVVASDDPSWQGKRVVGEINAACRRCPTCLRGDVSHCPQRTTLGIYRRDGAMADLFTLPEACLHEVPASVSDEAAVFTEPLAAALEIVEQSHIRPTERVAVVGDGKLGAMIVQVLRLTGCELTLIGRHPERWDVYRQQGITCVRSTDLPGTLFDVVVDCTGNPSGLNIARQIIRPRGRLILKSTFAAETQLNLSMVVVDEIQLIGSRCGPFAPALRLLERGLIATTPLISARYPLAEGLQAFAAAPGQLKVLLSV”, the “soluble on expression in E. coli” value is “not soluble”.
For the sequence “MAHHHHHHMSFAGLQKRLKNKAVATTTTNSTPPSSDAKTDNIESSSSVYDVAAREARANHEERKRQRSPHDKENTAYNPTINERNGPADMLSDHPSVEKASSKTLTETEFLERRHLAEEVVLQCAEAMSRNMELAATSIDKIDIKKESEVYDMSGLPLPLCQFLEQRLQRSSDATAMLISTCEEEEHNLVSALRSPSNLPMLFPPQVEDFVTTLRTLWLALCWHWVMALRGKEGNEGKEVSENGWSYNVYLLSRHALPITVRNTRGRDVALALQAWQEAYRVRQNMLDFLAYILHDMGVVLRFSGDDASKGDENLRIVPPKIADSIFCMVQHLRRRDFTTVRQAYVELTMGTANWKLGLFSGGEVHMRRSMERIERRRIEHLLHNERAVRLLHVLRELIEFVQKNEVMLLHTGIFAREKSMKEHSP”, the “soluble on expression in E. coli” value is “not soluble”.
Consider “MVTEKTLRTCEQGHEYYKSSDCPTCPVCEKERKPKESFLSLLSAPARRALEHRGIQTVEELSKYSEKEILKLHGMGPASLPKLKKVLEESWLSFK”, for which the “soluble on expression in E. coli” value is given as “not soluble”.
For the sequence “MIDTVSVVLFSKKSHIKIARSVLRDFLQMHESSDSLIVDMEIVLGEILANVIKHTYKNDETKRIIVSYTLKDEVFHMLVRDFGPPVDPTRLKPMPPDLENPREGGYGFYIISRVTDEFRVRPLRNGNLTVVKKKLR”, the “soluble on expression in E. coli” value is recorded as “soluble”.
On to “MVEKIWFENHPLKYLLWPLLWPLSVLFGAISRSKRQQFQTGRKQAYQAPVPVVVVGNITAGGNGKTPVVVWLVEQLQHLGYKPGVVSRGYGAKAPQYPLVLNDDTPTQHCGDEPKLIHRRTGAPVAVDPVRANAVKALVELDVDIIITDDGLQHYALERDVELVIVDGNRRFGNECLIPLGPLREGVERLQEVDFIITNGGLAHQGEISMSLAPSKAINLKTKQQVDVSELKALVAFAGIGHPPRFFNTLESMHADVKVTKGFADHQDFDQKELEALALQGANVIMTEKDAVKCSDYAQDNWWYLPVSAQLEPKDAERILNRIKEVKATYGSPSAAAALEHHHHHH”, for which the “soluble on expression in E. coli” value is “soluble”.
“GMQTPALIIVTGHPATGKTTLSQALATGLRLPLLSKDAFKEVMFDGLGWSDREWSRRVGATAIMMLYHTAATILQSGQSLIMESNFRVDLDTERMQNLHTIAPFTPIQIRCVASGDVLVERILSRIAQGARHPGHCDDRSPADLELVRSRGDIPPLPLGGPLLTVDTTFPEQIDMNAIVQWVRQHLQSGTAFL”: the “soluble on expression in E. coli” value is on record as “soluble”.
For “MSLAKISKIEAQKRKGRYNIYLDGKYAFPVAESVLIQFRLMKGTELDEKQIAAIATADQQAKAYSRMLDYLSYQMRTESDIVKKLKEIDTPEEFVEPILKKLRGQQLIDDHAYAASYVRTMINTDLKGPGIIRQHLRQKGIGESDIDDALTQFTPEVQAELAKKLALKLFRRYRNQPERRREQKVQQGLTTKGFSSSVYEMIKDEVVPQPDLEQENDLLAKEAAKQWRRVRRYQGYEREQHFKQTMYRKGFDLDDVQSWLDAQDEGHHHHHH”, the “soluble on expression in E. coli” value is listed as “soluble”.
In the case of “MVVSAMAGLEENGSEPTAPRADPQGDPFLRTRFALPTRPGTFLRRERLVRHLDHALRTPLTMVNGAAGAGKTLLVADWAAGQDRSVAWLTTDAADQGCGTFWAYLLQALRACDVPLPAEVGFPADANRVDHTLLARLAADLSVRDRPVVVVLDEYDRVTDPEIADQLEFV”, the “soluble on expression in E. coli” value was “not soluble”.

The record behind these values is the DeepSol protein solubility set.
